{"source": "patent US20120100142A1", "experiment_in_all_cases": "cell-based or functional assay", "key": {"[1]": {"biological_target": "HA of influenza A/Weiss/43 (H1N1) virus (influenza A/Weiss/43 (H1N1) virus)"}, "[2]": {"biological_target": "HA of A/Mexico/4108/09 (2009 A (H1N1)) virus (influenza A/Mexico/4108/2009 (H1N1) virus)"}, "[3]": {"biological_target": "HA of influenza A/Swine/Iowa/15/30 (H1N1) virus (influenza A/Swine/Iowa/15/30 (H1N1) virus)"}, "[4]": {"biological_target": "HA of influenza A/USSR/92/77 (H1N1) virus (influenza A/USSR/92/77 (H1N1) virus)"}}, "data": [{"substance": "mAb 1F1 (antibody)", "values": [{"measurement": "neutralizing activity, specific activity", "setting": "[1]", "result": 1.8, "unit": "µg/mL"}, {"measurement": "HAI, specific activity of indicated mAb", "setting": "[2]", "result": "> 5", "unit": "µg/mL"}, {"measurement": "Neut Ab, specific activity of indicated mAb", "setting": "[2]", "result": "> 5", "unit": "µg/mL"}, {"measurement": "Specific HAI activity", "setting": "[3]", "result": 0.04, "unit": "µg/mL"}, {"measurement": "neutralizing activity, specific activity", "setting": "[4]", "result": 0.88, "unit": "µg/mL"}]}]}
